Values joined by “and” are separate entries in the source; they are usually repeats but may differ in a detail not shown here. Equal entries are not always repeated.
Biological target: TGF-β1 (UniProt P01137 279-390)
Assay: cell-based or functional assay

TGF-β1, sequence (P01137 279-390 limits assumed): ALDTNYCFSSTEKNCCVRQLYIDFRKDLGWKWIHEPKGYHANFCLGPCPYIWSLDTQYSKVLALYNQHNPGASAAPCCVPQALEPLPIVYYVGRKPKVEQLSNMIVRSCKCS

- IC50, HEK-Blue TGF-β cells, 0.1 nM TGF-β1: 0.47 nM
- IC50, HEK-Blue TGFβ reporter cells, 0.1 nM TGFβ1: 0.461 nM and 0.559 nM
- fold lower TGF-β1 blocking activity than TGFRt15-TGFRs or TGFRt15*-TGFRs: ~10 fold
B1: human recombinant TGFβRII/Fc (Fc fusion, UniProt P37173 23-159, looked up, not shown: a dimerising Fc or GST)
chain: TIPPHVQKSVNNDMIVTDNNGAVKFPQLCKFCDVRFSTCDNQKSCMSNCSITSICEKPQEVCVAVWRKNDENITLETVCHDPKLPYHDFILEDAASPKCIMKEKKKPGETFFMCSCSSDECNDNIIFSEEYNTSNPD

Reference: patent US20250011380A1 (published 2025)
